Experimental data taken from article PMC4974476, “Structural basis for LIN54 recognition of CHR elements in cell cycle-regulated promoters”.

Assays:
LIN54 DBD [1] = target: T1, LIN54 DBD (Homo sapiens, UniProt Q6MZP7 515-646); assay: fluorescence polarization; ITC (25 C) and FP: 20 mM Tris, 150 mM NaCl, 0.1% Tween 20, pH 8.0; NMR: 35 mM MES, 75 mM NaCl, 5% D2O, pH 6.0, 25 C; conditions: protein: recombinant, tags: N-terminal GST with TEV site, cleaved, blunt
LIN54 DBD-N = LIN54 DBD-N (Homo sapiens, UniProt Q6MZP7 515-574); assay: as above; conditions: protein: recombinant; tags: N-terminal GST with TEV site, cleaved; label: 3' TAMRA on strand 1; blunt
LIN54 DBD-C [2] = target: T2, LIN54 DBD-C (Homo sapiens, UniProt Q6MZP7 589-646); assay: as above; conditions: protein: recombinant; tags: N-terminal GST with TEV site, cleaved; label: 3' TAMRA on strand 1; blunt
LIN54 DBD Y610F = LIN54 DBD Y610F (Homo sapiens, UniProt Q6MZP7 515-646, Y610F); assay: ITC; ITC (25 C) and FP: 20 mM Tris, 150 mM NaCl, 0.1% Tween 20, pH 8.0; NMR: 35 mM MES, 75 mM NaCl, 5% D2O, pH 6.0, 25 C; conditions: protein: recombinant; tags: N-terminal GST with TEV site, cleaved; blunt
LIN54 DBD [3] = target: T1, LIN54 DBD; assay: as above; conditions: protein: recombinant; tags: N-terminal GST with TEV site, cleaved; blunt
LIN54 DBD Y610A = LIN54 DBD Y610A (Homo sapiens, UniProt Q6MZP7 515-646, Y610A); assay: as above; conditions: protein: recombinant; tags: N-terminal GST with TEV site, cleaved; blunt
LIN54 DBD Y536F = LIN54 DBD Y536F (Homo sapiens, UniProt Q6MZP7 515-646, Y536F); assay: as above; conditions: protein: recombinant; tags: N-terminal GST with TEV site, cleaved; blunt
LIN54 DBD Y536A = LIN54 DBD Y536A (Homo sapiens, UniProt Q6MZP7 515-646, Y536A); assay: as above; conditions: protein: recombinant; tags: N-terminal GST with TEV site, cleaved; blunt
LIN54 DBD Y536R = LIN54 DBD Y536R (Homo sapiens, UniProt Q6MZP7 515-646, Y536R); assay: as above; conditions: protein: recombinant; tags: N-terminal GST with TEV site, cleaved; blunt
LIN54 DBD Y610R = LIN54 DBD Y610R (Homo sapiens, UniProt Q6MZP7 515-646, Y610R); assay: as above; conditions: protein: recombinant; tags: N-terminal GST with TEV site, cleaved; blunt
LIN54 DBD-C [4] = target: T2, LIN54 DBD-C; assay: NMR HSQC titration; 35 mM MES, 75 mM NaCl, pH 6.0, 25 C; ITC (25 C) and FP: 20 mM Tris, 150 mM NaCl, 0.1% Tween 20, pH 8.0; NMR: 35 mM MES, 75 mM NaCl, 5% D2O, pH 6.0, 25 C; conditions: protein: recombinant; tags: N-terminal GST with TEV site, cleaved; blunt

T1 sequence (Q6MZP7 515-646): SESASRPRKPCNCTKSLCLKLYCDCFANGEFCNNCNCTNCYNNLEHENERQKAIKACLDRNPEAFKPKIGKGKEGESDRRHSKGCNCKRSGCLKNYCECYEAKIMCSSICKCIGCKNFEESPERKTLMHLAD
T2 sequence (Q6MZP7 589-646): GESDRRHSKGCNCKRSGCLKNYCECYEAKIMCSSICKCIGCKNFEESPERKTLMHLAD
Chain of LIN54 DBD Y536F (Q6MZP7 515-646 Y536F): as the sequence (Q6MZP7 515-646) above, with Y22F counted along it
Chain of LIN54 DBD Y536A (Q6MZP7 515-646 Y536A): as the sequence (Q6MZP7 515-646) above, with Y22A counted along it
Chain of LIN54 DBD Y536R (Q6MZP7 515-646 Y536R): as the sequence (Q6MZP7 515-646) above, with Y22R counted along it
Chain of LIN54 DBD Y610R (Q6MZP7 515-646 Y610R): as the sequence (Q6MZP7 515-646) above, with Y96R counted along it
Chain of LIN54 DBD-N (Q6MZP7 515-574): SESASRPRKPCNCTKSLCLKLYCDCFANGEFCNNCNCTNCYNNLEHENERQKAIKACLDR
Chain of LIN54 DBD Y610A (Q6MZP7 515-646 Y610A): as the sequence (Q6MZP7 515-646) above, with Y96A counted along it
Chain of LIN54 DBD Y610F (Q6MZP7 515-646 Y610F): as the sequence (Q6MZP7 515-646) above, with Y96F counted along it

B1: CHR27 (dsDNA)
DNA 1: CCTTTAGCGCGGTGAGTTTGAAACTGTAA
DNA 2: TTACAGTTTCAAACTCACCGCGCTAAAGG
Kd (LIN54 DBD [1]; label: 3' TAMRA on strand 1): 0.43 ± 0.08 µM
binding result (LIN54 DBD-N): no binding
binding result (LIN54 DBD-C [2]): no binding

B2: CHR13 (dsDNA)
DNA 1: GAGTTTGAAACTG
DNA 2: CAGTTTCAAACTC
binding result (LIN54 DBD Y610F): no binding
Kd (LIN54 DBD [3]): 2.8 ± 0.1 µM
binding result (LIN54 DBD Y610A): no binding
binding result (LIN54 DBD Y536F): no binding
binding result (LIN54 DBD Y536A): no binding
binding result (LIN54 DBD Y536R): no binding
binding result (LIN54 DBD Y610R): no binding
Kd (LIN54 DBD-C [4]): 500 ± 100 µM

B3: CHR13 (FP) (dsDNA)
DNA 1: GAGTTTGAAACTG
DNA 2: CAGTTTCAAACTC
Kd (LIN54 DBD [1]): 5 ± 2 µM
